For assay [1], the target named is CD27-mFc (Kangdai) (human) (UniProt P26842). The assay can be described thus: competition ELISA: CD70 coated, CD27-mFc plus antibody dilutions; competitor CD70. For orientation: In an ELISA, binding on a coated surface is turned into a signal by an enzyme label.
Assay [2] has the same target. The assay can be described thus: competition ELISA: coated CD70 (1 ug/mL), CD27-mFc fixed at 4.3 ug/mL plus antibody dilution, HRP anti-mouse Fc detection; blocked ligand CD70 (Example 3.5).
Assay [3] addresses human CD27 (transmembrane protein) on the cell membrane (human) (UniProt P26842). In words: flow cytometry on human PBMC, antibody 5 ug/mL, CD3 FITC-A against APC-A (Example 3.3); other quadrants printed: Q2-UL 16.97 %, Q2-LL 27.93 %, Q2-LR 8.25 %. On the technique in general: A flow cytometer gives signals particle by particle.
The target is the same in assay [4]. The assay can be described thus: flow cytometry on CHO cells expressing human CD27.
Assay [5] deals with antigen CD27 (soluble, as used in the BLI and SPR experiments) (UniProt P26842). The assay can be described thus: BLI, antibody captured on AHC probe, CD27 in solution. Background: In BLI a coated tip is dipped into the sample, and binding shifts an interference pattern.
Assay [6] has as its target CD27-mFc (Kangdai) (human) (UniProt P26842). In words: ELISA on coated CD27-mFc.
Assay [7] has as its target human CD27 (transmembrane protein) on the cell membrane (human) (UniProt P26842). In words: flow cytometry on human PBMC, antibody 5 ug/mL, CD19 PE-A against APC-A (Example 3.3); other quadrants printed: Q3-UL 15.04 %, Q3-LL 29.25 %, Q3-LR 51.11 %.
Assay [8] addresses CD27-mFc (Kangdai) (human) (UniProt P26842). The assay can be described thus: ELISA on coated CD27-mFc (1 ug/mL), AP anti-human Fc detection, absorption at 405/490 nm (Example 15.2).

CD27-mFc (Kangdai) (human), sequence (P26842 21-192 limits assumed): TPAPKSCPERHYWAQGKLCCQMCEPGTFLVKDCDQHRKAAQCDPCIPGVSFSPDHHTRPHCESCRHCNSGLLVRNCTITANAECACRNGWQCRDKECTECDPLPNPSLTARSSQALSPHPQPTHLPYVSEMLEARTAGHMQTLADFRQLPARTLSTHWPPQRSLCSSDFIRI
antigen CD27 (soluble, as used in the BLI and SPR experiments), sequence (P26842 21-192 limits assumed): as above
human CD27 (transmembrane protein) on the cell membrane (human), sequence (P26842 20-260): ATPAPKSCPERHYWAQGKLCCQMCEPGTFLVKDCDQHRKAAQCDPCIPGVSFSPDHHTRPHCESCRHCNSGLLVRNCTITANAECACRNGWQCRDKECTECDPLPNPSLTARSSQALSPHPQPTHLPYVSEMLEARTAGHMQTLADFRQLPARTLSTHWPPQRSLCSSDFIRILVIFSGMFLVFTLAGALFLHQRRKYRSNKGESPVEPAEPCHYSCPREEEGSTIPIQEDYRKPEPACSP

The term IC50 denotes the concentration at which inhibition is half-maximal. Usually EC50 stands for the concentration that produces a half-maximal response. A lower EC50 goes with a more potent agent. A word on the Kd: it is the free concentration of one partner at which half of the binding sites on the other are occupied at equilibrium, for simple one-to-one binding. Lower therefore signals a tighter complex. What is called koff is the rate constant with which the complex falls apart. The term kon denotes a measure of how fast the partners come together. Low readings indicate slow association, high ones fast association. On to “CD27 monoclonal antibody Varlilumab (1F5)”, for which the IC50 in assay [1] is 1.31 µg/mL. In addition, the IC50 (read off the curve) in assay [2] turned out to be 1 µg/mL. In assay [3], this substance registered a Q2-UR, percent of gated cells that are CD3 FITC+ and APC+ (antibody-stained) of 46.9%. The concentration for a half-maximal effect (EC50) in assay [4] is 2.87 µg/mL. For the same substance, in assay [5], the dissociation constant Kd was determined as 0.696 nM, the koff came to 8.75e-05 s⁻¹ and the on-rate constant (kon) was determined as 126000 M⁻¹ s⁻¹. The same substance had an EC50 in assay [6] of 0.0381 µg/mL. Also, the Q3-UR, percent of gated cells that are CD19 PE+ and APC+ (antibody-stained) in assay [7] came to 4.6%. In assay [8], this substance showed an EC50 of 0.032 µg/mL.

For the origin of these results see US20260265393A1.
